± gives the standard deviation of the averaged measurements.
B1: library; numbered along this chain (parent)
chain: MNIQIGELAKRTACPVVTIRFYEQEGLLPPPGRSRGNFRLYGEEHVERLQFIRHCRSLDMPLSDVRTLLSYRKRPDQDCGEVNMLLDEHIRQVESRIGALLELKHHLVELREACSGARPAQSCGILQGLSDCVCDTRGTTAHPSD

Tests used:
[1] = variants of: B1; assay: sfGFP reporter fluorescence (15 h) (µM FITC); higher = higher leak; conditions: library round: Round 0; ligand: none
Method in brief: (§1)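 Linear PbrR templates were made by PCR, normalized to 5 nM with an Echo, and expressed in BL21 Star (DE3) PANOx-SP extract with the pPbrR-sfGFP reporter plasmid and 30 μg/mL GamS. Echo-assembled 1 μL reactions held 1 µM lead chloride, 30 µM zinc acetate or no metal and were incubated 15 hr at 30 °C. Endpoint sfGFP fluorescence was read on a Synergy Neo2 and expressed as µM FITC using standard curves. Up to three biological replicates were run.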

[2] = variants of: B1; assay: sfGFP reporter fluorescence (15 h) (µM FITC); higher = stronger transcriptional activation; conditions: library round: Round 0
Method in brief: as §1

| Variant | sfGFP reporter fluorescence [1] | sfGFP reporter fluorescence ([2]; ligand: 1 µM Pb) | sfGFP reporter fluorescence ([2]; ligand: 30 µM Zn) |
| --- | --- | --- | --- |
| V82A | 0.06047 ± 0.00052 | 0.057 ± 0.0013 | 0.0786 ± 0.0039 |
| V82L | 0.0574 ± 0.0034 | 0.0583 ± 0.001 | 0.0724 ± 0.0044 |
| V82F | 0.0572 | 0.0572 ± 0.0015 | 0.053 ± 0.0023 |
| V82K | 0.0601 ± 0.0021 | 0.0566 ± 0.0039 | 0.0563 ± 0.0039 |
| V82N | 0.0597 ± 0.001 | 0.0597 ± 0.0015 | 0.05644 ± 0.00052 |
| V82Q | 0.0579 ± 0.0021 | 0.05699 ± 0.00026 | 0.0552 ± 0.0013 |
| V82E | 0.0568 ± 0.0026 | 0.0586 ± 0.0015 | 0.0541 ± 0.0029 |
| V82G | 0.0555 ± 0.0023 | 0.0564 ± 0.001 | 0.0548 ± 0.0018 |
| V82H | 0.0594 ± 0.0015 | 0.05974 ± 0.00052 | 0.0586 ± 0.001 |
| V82C | 0.05956 ± 0.00026 | 0.0588 ± 0.00078 | 0.0898 ± 0.0042 |
| V82M | 0.0594 | 0.0586 | 0.06212 ± 0.00026 |
| V82P | 0.057 ± 0.00078 | 0.05754 ± 0.00052 | 0.0577 ± 0.0013 |
| V82W | 0.0592 ± 0.0013 | 0.05827 ± 0.00052 | 0.0555 ± 0.00078 |
| V82D | 0.057 ± 0.0044 | 0.0597 | 0.055 |
| V82R | 0.0605 ± 0.0015 | 0.05937 ± 0.00052 | 0.0568 ± 0.001 |
| V82S | 0.0592 ± 0.0023 | 0.057 ± 0.0018 | 0.05552 ± 0.00026 |
| V82I | 0.0572 ± 0.0015 | 0.0658 ± 0.0023 | 0.676 ± 0.0088 |
| V82Y | 0.0588 ± 0.0034 | 0.05864 ± 0.00052 | 0.0544 ± 0.0013 |
| V82T | 0.0588 ± 0.0013 | 0.059 ± 0.0021 | 0.0583 ± 0.0057 |
| L85W | 0.0618 ± 0.0018 | 0.0597 ± 0.0036 | 0.157 ± 0.013 |
| L85A | 0.05864 ± 0.00052 | 0.0559 ± 0.0023 | 0.07183 ± 0.00052 |
| L85K | 0.0585 ± 0.0029 | 0.0566 ± 0.00078 | 0.0645 ± 0.001 |

| Variant | sfGFP reporter fluorescence [1] | sfGFP reporter fluorescence ([2]; ligand: 1 µM Pb) | sfGFP reporter fluorescence ([2]; ligand: 30 µM Zn) |
| --- | --- | --- | --- |
| L85T | 0.0601 ± 0.0015 | 0.057 ± 0.0013 | 0.1118 ± 0.00052 |
| L85S | 0.059 ± 0.0021 | 0.059 ± 0.0015 | 0.0627 |
| L85D | 0.0577 ± 0.0013 | 0.0563 ± 0.0013 | 0.0537 ± 0.0013 |
| L85Q | 0.0586 ± 0.001 | 0.0581 ± 0.00078 | 0.0658 ± 0.0023 |
| L85E | 0.0605 ± 0.0015 | 0.0586 ± 0.0021 | 0.05662 ± 0.00026 |
| L85V | 0.0585 ± 0.0018 | 0.0594 ± 0.0026 | 0.1479 ± 0.0013 |
| L85P | 0.057 ± 0.0023 | 0.05809 ± 0.00026 | 0.0555 ± 0.0013 |
| L85G | 0.0544 ± 0.0023 | 0.0541 ± 0.0013 | 0.0603 ± 0.00078 |
| L85M | 0.05754 ± 0.00052 | 0.06945 ± 0.00026 | 0.597 ± 0.017 |
| L85C | 0.0607 ± 0.0018 | 0.0577 ± 0.0013 | 0.117 ± 0.0039 |
| L85Y | 0.0592 ± 0.0039 | 0.0603 ± 0.00078 | 0.253 ± 0.0096 |
| L85F | 0.057 ± 0.0029 | 0.0559 ± 0.0013 | 0.0828 ± 0.0021 |
| L85H | 0.0603 ± 0.0018 | 0.05827 ± 0.00052 | 0.0629 ± 0.00078 |
| L85N | 0.0564 ± 0.0021 | 0.0575 ± 0.0015 | 0.0612 ± 0.0015 |
| L85I | 0.0577 ± 0.00078 | 0.06853 ± 0.00052 | 0.6194 ± 0.0057 |
| L85R | 0.0596 ± 0.0018 | 0.0577 ± 0.00078 | 0.0652 ± 0.001 |
| V93A | 0.0585 ± 0.0013 | 0.0579 ± 0.0031 | 0.128 ± 0.0062 |
| P75A | 0.0618 ± 0.0023 | 0.0711 ± 0.01 | 0.519 ± 0.049 |
| M84A | 0.0618 ± 0.0029 | 0.0687 ± 0.0029 | 0.807 ± 0.02 |
| E81A | 0.0612 ± 0.001 | 0.0792 ± 0.0047 | 0.655 ± 0.13 |
| L101A | 0.0632 ± 0.0013 | 0.0746 ± 0.0013 | 0.555 ± 0.17 |
| C79N | 0.05919 ± 0.00026 | 0.0566 ± 0.0013 | 0.0557 |

| Variant | sfGFP reporter fluorescence [1] | sfGFP reporter fluorescence ([2]; ligand: 1 µM Pb) | sfGFP reporter fluorescence ([2]; ligand: 30 µM Zn) |
| --- | --- | --- | --- |
| C79M | 0.05974 ± 0.00052 | 0.06121 ± 0.00052 | 0.0592 ± 0.0013 |
| C79Y | 0.0597 ± 0.0031 | 0.0585 ± 0.00078 | 0.0564 ± 0.001 |
| C79D | 0.05882 ± 0.00026 | 0.059 ± 0.0021 | 0.0564 ± 0.001 |
| C79E | 0.0588 ± 0.00078 | 0.0596 ± 0.00078 | 0.0548 ± 0.00078 |
| C79H | 0.05919 ± 0.00026 | 0.0596 ± 0.00078 | 0.0559 ± 0.00078 |
| C79I | 0.0557 ± 0.0015 | 0.05351 ± 0.00052 | 0.05387 ± 0.00052 |
| C79V | 0.0572 ± 0.0015 | 0.0586 | 0.05552 ± 0.00026 |
| C79W | 0.0583 ± 0.0021 | 0.0588 ± 0.0013 | 0.0548 ± 0.0034 |
| C79P | 0.057 ± 0.00078 | 0.05772 ± 0.00026 | 0.05351 ± 0.00052 |
| C79L | 0.0555 ± 0.0023 | 0.0553 ± 0.0021 | 0.05498 ± 0.00052 |
| C79G | 0.0553 ± 0.0021 | 0.0552 ± 0.0013 | 0.0522 ± 0.0013 |
| C79F | 0.055 ± 0.0026 | 0.0574 ± 0.0013 | 0.0546 ± 0.0015 |
| C79S | 0.0592 ± 0.0018 | 0.059 ± 0.001 | 0.055 |
| C79K | 0.06011 ± 0.00052 | 0.0614 ± 0.00078 | 0.0548 ± 0.00078 |
| C79R | 0.06011 ± 0.00052 | 0.0629 ± 0.0018 | 0.059 ± 0.001 |
| C79A | 0.05827 ± 0.00052 | 0.055 ± 0.0021 | 0.0585 ± 0.00078 |
| C79T | 0.0575 ± 0.0031 | 0.0592 ± 0.0018 | 0.0555 ± 0.0018 |
| C79Q | 0.05901 ± 0.00052 | 0.05937 ± 0.00052 | 0.0566 ± 0.00078 |
| Q77A | 0.0698 ± 0.0013 | 0.128 ± 0.045 | 1.48 ± 0.31 |
| G80A | 0.0577 ± 0.0029 | 0.0649 ± 0.0073 | 0.526 ± 0.039 |
| Q92A | 0.0592 ± 0.0013 | 0.063 ± 0.0026 | 0.421 ± 0.042 |
| K104D | 0.0592 ± 0.006 | 0.138 ± 0.046 | 1.06 ± 0.18 |

| Variant | sfGFP reporter fluorescence [1] | sfGFP reporter fluorescence ([2]; ligand: 1 µM Pb) | sfGFP reporter fluorescence ([2]; ligand: 30 µM Zn) |
| --- | --- | --- | --- |
| K104C | 0.0614 ± 0.0091 | 0.133 ± 0.026 | 1.32 ± 0.18 |
| K104A | 0.05974 ± 0.00052 | 0.0759 ± 0.0021 | 0.591 ± 0.037 |
| K73A | 0.0621 ± 0.0013 | 0.0676 ± 0.007 | 0.42 ± 0.15 |
| S95A | 0.0625 ± 0.0013 | 0.0759 ± 0.0062 | 0.797 ± 0.063 |
| R74A | 0.0596 ± 0.0013 | 0.0669 ± 0.0065 | 0.369 ± 0.079 |
| E88A | 0.061 ± 0.0034 | 0.0859 ± 0.0091 | 0.965 ± 0.07 |
| L86A | 0.07 ± 0.0015 | 0.0647 ± 0.0018 | 0.0782 ± 0.0018 |
| L103A | 0.0629 ± 0.0013 | 0.06945 ± 0.00026 | 0.918 ± 0.037 |
| G98A | 0.0614 ± 0.00078 | 0.0762 ± 0.0021 | 0.793 ± 0.06 |
| D78A | 0.0713 ± 0.0065 | 0.0689 ± 0.0021 | 0.1 ± 0.0026 |
| I97P | 0.0542 ± 0.0036 | 0.0561 ± 0.001 | 0.135 ± 0.0036 |
| I97S | 0.0592 ± 0.0039 | 0.0722 ± 0.0015 | 0.554 ± 0.0062 |
| I97N | 0.0566 ± 0.0029 | 0.0603 ± 0.0039 | 0.325 ± 0.0065 |
| I97A | 0.0663 ± 0.0021 | 0.133 ± 0.0015 | 1.138 ± 0.007 |
| I97L | 0.0596 ± 0.0023 | 0.0797 ± 0.0044 | 0.842 ± 0.014 |
| I97F | 0.0535 ± 0.0042 | 0.0592 ± 0.0029 | 0.278 ± 0.036 |
| I97H | 0.0564 ± 0.0062 | 0.0596 ± 0.0034 | 0.263 ± 0.0018 |
| I97D | 0.0596 ± 0.0044 | 0.0575 ± 0.001 | 0.193 ± 0.0054 |
| I97W | 0.0585 ± 0.006 | 0.0616 ± 0.0015 | 0.176 ± 0.0073 |
| I97M | 0.0574 ± 0.0023 | 0.057 ± 0.0023 | 0.2807 ± 0.00052 |
| I97K | 0.0607 ± 0.0029 | 0.0597 ± 0.0021 | 0.102 ± 0.006 |
| I97V | 0.0563 ± 0.0023 | 0.0605 ± 0.0026 | 0.338 ± 0.015 |

From the supplement of paper PMC12783771
